Assay results: a protein production outcome set (Wang et al. 2014)

Assay: label from the status in PepcDB records
In the case of “MGSLGFLAGGVMPLEQLKQELSEVKGVFGVNLFRPQTDAPKPSDIDELAGLLSSAFRQFGLDEPTVPTPDLSNGWEAKFEAVLAAKPAVFSCTFGIFSAEEFARIKATGIEAWVTVTNPEDALAAQKAGANALVVQGPEAGGHRSTWSIEVEPDERDLKTLLAAVKQAGVYLPLIAAGGLSTSADVAAILEAGASAASCGSAFLLSDEAGTSSLNREILDAAPALGLESVSSRAFSGRYARGVETRFTRSNEGLPPLYPYLNPMITSLRKVAGSAGNWDYAYCLVGVGLESIAKGSAKQILESLTPSALEHHHHHH”, the protein production is reported as “failed”.
In the case of “MGSPASASHEALRHILDAGASMGSLQGLDEAQQQALYAIAHGAYEQGRYADALKMFCLLVACDPLEARYLLALAAAAQELGLYEHALQQYAAAAALQLDSPRPLLHGAECLYALGRRRDALDTLDMVLELCGSPEHAALRERAESLRRSYARALEHHHHHH”, the protein production is reported as “failed”.
For “MGSPNSLSRRGFCLCCVGGATFAASAGWLTPREAYAEARGLVSLIKDSAAISPITASRLRNNISVLEGSGGNIAVLTGSDGKLLVDAGIRVSRAQLTNALAGLGTDPVTHLVNTHWHFDHADGNEWLHSAGAKIIAHENTRKHLLGVQRVEDWDYNFLPLGPGGIPSEVFAGSHKLGLNGASISLKYFGPAHTDSDVSVTFVEANIVHVGDTFWNGIYPFIDYSTGGSIDGMIAACDANLAATDKDTIIIPGHGKPVSNKAELQAFRDMLVAIRDNVARLKAQGRTWDETVAAKPTAAFDAQWGQFVIDPGFFTRLVYQGV”, the protein production was “failed”.
With “MGSRDLISSLPDEILGKVLSLLPTKRAASTAVLSKRWNNLPALVDKLDINDAIGGPGGFPEFIDKTLALLTNSTTIKRTSLNNEFQYGESQVNTWIRSFLERGCLQLYLNAQSLYTIDTEFFTSNTLVELTITGGFSPDGLLPPGGVFFPKLKTLSLVLMTFVDSDMYELFISGCPLLEEFLLRNDEIEIPPVWNALVSSPSIKRLTIVHHFPNYREAHDGCWFRTPNLVYLDYSSYVPDWYEVDLGSLVEARLDLRSWERLRDEKAGGYGDCDSVYDDEEYPDDPILGDVTNLVTGLSNIKTLHLSPDSLEVSFPYLLLFQFEVHSSLQSLLIV” the protein production was “failed”.
With “MGSRTHARKDASSEALQAPRLRTLLLTDLCDSTALVERIGDNAAAALFREHDRLVVKLQQHWRGRLIDRSDGLLLLFDRPIDGLGFALDYARGLKTMGDAHALTLCARQGLHVGEVLTWRNSDEAISIGAKPLEVEGLAKPTAARLMSMARPGQILLSAVAESLTHRAARELGNRADRLLWKSHGRWRFKGMPTPMEIYEVGEVGLTPLRMPKNSAKAWRDVPLWRRPAALVAEVGVVLAVGIAAWFFIRPQPAIAFASRDWVVVGDVRNLTGNTVLDGALEQALRISLEQSRYVNVLSDMKVRDTVTRMKRDPNTIVLDRSVASEVALRDGASAVLLPTVAEVGGKLRFSVELVDPRTQTTVYSEFVQGDGLPSALSSVDQVTRKLRQGLGEMVASIDKNSVPLPAVTTSSLDALRAYALGVEATAKGRWREGLELFDRAVGIDPTFALAYLGAARIKVAVSDRNGALPYLDNAVRFRQRLPARDQLYLDAWIAELRAVDTALPLWRTLASLYPDNFAGAANTSWHLFVANRFADALPYAQAADVVQDPLRSIASDRIGRILMAQGKVEAALQRFENSSDGDRAGPLRRQADALAVLGRYAEEQRTLDRIVDNGYANDDVVPLIDRTSIALDQANWANANAAVAQALERSKHTDDFSYRQFLVIGATTAAITGETASVGPGMSSTFEALVGAIKANGPAEPNLQDDAAMVLSLVSQAQRNGDDQFTARALSAIKPALAHETPVLADLRAIVEAQHLALSGDRVAAIARLPPGPDDLLQMRVTLYTLLHDSGRHAEALQQARWLSLQRGRAYIEANASQTLQPLNVAHTRLARLWTAESLYALGRTQEAREQAQAFVRAWPASHLPAYLRSRVERILSDSKAKITV” the protein production was “failed”.
For “MGSSHHHHHHENLYFQGTSVMITENQSVNAKGKYEKMNRLYDTNKLHQYYSGPSYELTNVSGQSQGYYDSNVLLFNQQNQKFQVFLLGKDENKYKEKTHGLDVFAVPELVDLDGRIFSVSGVTKKNVKSIFESLRTPNLLVKKIDDKDGFSIDEFFFIQKEEVSLKELDFKIRKLLIKKYKLYEGSADKGRIVINMKDENKYEIDLSDKLDFERMADVINSEQIKNIEVNLK”, the protein production was “not failed”.
With “MGSSHHHHHHSSGLVIRGSHMRIALMQHTARPLDPQHNLDLIDDAAARASEQGAQLLLTPELFGFGYVPSQICAQVSAEQVDAARSRLRGIARDRGIALVWSLPGPEGPEQRGITAELADEHGEVLASYQKVQLYGPEEKAAFVPGEQPPPVLSWGGRQLSLLVCYDVEFPEMVRAAAARGAQLVLVPTALAGDETSVPGILLPARAVENGITLAYANHCGPEGGLVFDGGSVVVGPAGQPLGELGVEPGLLVVDLPDQSQDAGSDSADYLQDRRAELHRNWL” the protein production was “not failed”.
With “MGSSHHHHHHSSGRENLYFQGHMAATAREDGASGQERGQRGCEHYDRGCLLKAPCCDKLYTCRLCHDNNEDHQLDRFKVKEVQCINCEKIQHAQQTCEECSTLFGEYYCDICHLFDKDKKQYHCENCGICRIGPKEDFFHCLKCNLCLAMNLQGRHKCI” the protein production was “not failed”.
In the case of “MGSTRKGMLNVLIAAVLWGSSGVCAQYIMEQSQMSSQFLTMTRLIFAGLILLTLSFVHGDKIFSIINNHKDAISLLIFSVVGALTVQLTFLLTIEKSNAATATVLQFLSPTIIVAWFSLVRKSRPGILVFCAILTSLVGTFLLVTHGNPTSLSISPAALFWGIASAFAAAFYTTYPSTLIARYGTLPVVGWSMLIGGLILLPFYARQGTNFVVNGSLILAFFYLVVIGTSLTFSLYLKGAQLIGGPKASILSCAEPLSSALLSLLLLGITFTLPDWLGTLLILSSVILISMDSRRRARKINRPARHK”, the protein production is reported as “failed”.
With “MGSVPMGHKRISFHIVQTTRSGDRSASRTSVEEASDQGPSPWTTADSAIFQLRWSCVWRRAVSTSANIEDGADAAFVASPPPFGAGVADLYQALLVPILFEPYALEMAIVAERSKPVSVLEVAAGTGALTRALRAKLDPAAEIVATDLSQAMIDVGAPSVTMSRTHWMHADAQDLPFAPLMFDLVVCQFGVMFFPDKPKAYHEAKRVLRSGGRLLFSTWDSLAANDFARCVDECLTGLFPSDPPDFLGRLPYSYFDPSLIKAEVSSAGFKAVSCERLELASIAATSQDVATAFCRGTPLSGEIEWRAPERMSEIVDEVAERVASRYGARPCGSMSALVVSGRAP” the protein production was “failed”.
For “MGSVSNQQFAGGCAKAAEEAPEEAPEDAARAADEPQLLHGAGICKWFNVRMGFGFLSMTARAGVALDPPVDVFVHQSKLHMEGFRSLKEGEAVEFTFKKSAKGLESIRVTGPGGVFCIGSERRPKGKSMQKRRSKGDRCYNCGGLDHHAKECKLPPQPKKCHFCQSISHMVASCPLKAQQGPSAQGKPTYFREEEEEIHSPTLLPEAQN”, the protein production was “failed”.
With “MGSVSTGNAGSGTVGTSTTSRADVMTFQPSSLPVSYVGETYNVQVGVTGGVGPYGYRLTAGTLPPGLKFAGGALSGTPTKAGSYSFAIQATDANLSTRVQEYTMNVDALPPLALKPTLPPGEIRGETRIPVTIQAPRAVRAARLSWDLGKDVQVTRVQPADAGSVVFWQQRGSVLTVDLGFRTVPRPDARIALITVKPAKAVTLKADALGYEARDGSGKMLVDKKRPGSEPVKPAEQPGDPKVDPKAADQKATDQKATDPKTVDPKTVTPADTVEGGPLPSPALPTPSLPPTLPPVTTPPANTPPVPTPTPPANQPAPAPAPQPAPAPQPTPPSGTGGALEHHHHHH” the protein production was “failed”.
For “MGTALVYHEDMTATRLLWDDPECEIECPERLTAALDGLRQRGLEERCLCLSACEASEEELGLVHSPEYIALVQKTQTLDKEELHALSKQYDAVYFHPDTFHCARLAAGAALQLVDAVLTGAVHNGLALVRPPGHHSQRAAANGFCVFNNVALAAKHAKQKYGLQRILIVDWDVHHGQGIQYIFNDDPSVLYFSWHRYEHGSFWPFLPESDADAVGQGQGQGFTVNLPWNQVGMGNADYLAAFLHVLLPLAFEFDPELVLVSAGFDSAIGDPEGQMQATPECFAHLTQLLQVLAGGRICAVLEGGYHLESLAQSVCMMVQTLLGDPTPPLLGLMVPCQSALESIQSVQTAQTPYWTSLQQNVAPVLSSSTHSPEERSLRLLGESPTCAVAEDSLSPLLDQLCLRPAPPICTAVASTVPGAALCLPPGVLHQEGSVLREETEAWARLHKSRFQDEDLATLGKILCLLDGIMDGQIRNAIATTTALATAATLDVLIQRCLARRAQRVLCVALGQLDRPLDLADDGRILWLNIRGKDAAIQSMFHFSTPLPQTTGGFLSLILGLVLPLAYGFQPDMVLMALGPAHGLQNAQAALLAAMLRSPVGGRILAVVEEESIRLLARSLAQALHGETPPSLGPFSKATPEEIQALMFLKARLEARWKLLQVAAPPP”, the protein production was “failed”.
In the case of “MGTARTLTAAGGEPAFRGNDRLLLGIILGVLTFWLFAQTTLNIAPDMRRDLGTGESLMNIAVALTALFSGIFIVVMGGLADRVGRVRMVRLGFLASIAGSLLVGLAPAGGLAVAFLLAGRALQGLSGACIMPASLALVKAYWDGAERQRAISLWSIGSWGGSGVCSLFGGLVTQHLGWRWIFFASVLVAIAGLLLLRGTPESRAEGGAADYRFDLAGVLTFMVAMVALQVVVTQGNQLGWTSPASLGLVAATIVFGWLFLRIERRARSPFIDFGLFRSPTYTGATISNFLLNGVAGTLIVSLQLVQVGGGMSAQRAGVLTLGYAVAIIAFIRVGEKLLRRFGARRPMLWGCAITGASILLLAPSNVMLARYEVMAVIGYTLFGVGLAFYATPSTDAALSNLPASQAGAGSGLYKMASSLGAAFGVAISAAIFTALRAAPQSVSWLEGVITFQGRQDNLAVREAAIIALGFNELMVVVAIVSIVLTIPEGERRQGA”, the protein production is reported as “failed”.
For “MGTLGRAIYTVGNWIRGTGQALDRVGSLLQGSHRIEEHLSRHRTLMNVFDKSPLVDKDVFVAPSASVIGDVQIGKGSSIWYGCVLRGDVNNISVGSGTNIQDNTLVHVAKTNISGKVLPTLIGDNVTVGHSAVIHGCTVEDDAFVGMGATLLDGVVVEKHAMVAAGSLVKQNTRIPSGEVWGGNPAKFMRKLTDEEIVYISQSAKNYINLAQIHASENSKSFEQIEVERALRKKYARKDEDYDSMLGITRETPPELILPDNVLPGGKPVAKVPSTQYF”, the protein production was “failed”.
In the case of “MGTSKYSPEFRADAVALYHASPGGTYASVAKDLGVNHETLRTWVRDAEQAGRPGAVEATAMDKENRQLRARVKELELEREILRRAAKYFAAETSWLEHHHHHH”, the protein production is reported as “not failed”.
With “MGTSSDPIQDGSDEQQKRSEIYTYEAPWHIYAMNWSVRRDKKYRLAITSLLEQYPNRVEIVQLDESNGEIRSDPNLSFEHPYPPTKTIFIPDKECQRPDLLATSSDFLRLWRIADDHSRVELKSCLNSNKNSEFCGPLTSFDWNEAEPRRIGTSSTDTTCTIWDIEREAVDTQLIAHDKEVFDIAWGGVGVFASVSADGSVRVFDLRDKEHSTIIYESSEPDTPLVRLGWNKQDPRYMATIIMDSAKVVVLDIRFPALPVVELQRHQASVNAIAWAPHSSCHICTAGDDSQALIWDISSMGQHVEGGLDPILAYTAGAEIEQLQWSSSQPDWVAIAFSTKLQILRV” the protein production was “failed”.
With “MGTTEKSGIKEIIIQGLTRAGKPFRPSDWVDRMCSTYASFGADRKLRYSPYLKPRVIEGVRCLAVDLKLKDTNPEGFNQLMHFATENQLNILDAEGNSIDAAQVTEI” the protein production was “not failed”.
With “MGVANLRVMHYVHKDKAFAYWSCTCVYAPESRYCSEEHKKMALAEREYELPHNFANVHLHTNMEDLVLPKIISYLRDPQLGIIEIPNLQYIDDVFNVTPTEQPDMFSTNLDEREEFNIWLFMMIS” the protein production was “failed”.
With “MGVDMELKVEASLREARTLLAAKQYSQAANVAHSLFCTCHKFNLQIEKASVLLLLAEIHKKSGNAVLGLPYALASISFCQSFNLDLLKASATLTLAELWLGLGSNHTKRALDLLHGAFPMILGHGGLELRARAYIFEANCYLSDPSSSVSTDSDTVLDSLRQASDELQALEYHELAAEASYLMAMVYDKLGRLDEREEAASLFKKHIIALENPQDVEQNMA” the protein production was “failed”.
